Measurements from paper PMC10715180.

How the values were obtained:
Assay in all cases: EMSA
Conditions in all cases: […] (binding temperature not stated)
[1] = target: PhoP K224A K224A (Mycobacterium abscessus subsp. massiliense CIP108297 (Mmas; subspecies name implied?)) (UniProt B1MHU9)
[2] = target: PhoP D71N D71N (Mycobacterium abscessus subsp. massiliense CIP108297 (Mmas; subspecies name implied?)) (UniProt B1MHU9)
[3] = target: PhoP (PhoPmas) WT, unphosphorylated (Mycobacterium abscessus subsp. massiliense CIP108297 (Mmas; subspecies name implied?)) (UniProt B1MHU9)

AGGTAATCTTCCCCCCAAAATTTACGATGCGCTGGATCTTCACTGTGAGCTTCCTGTGAGTTACTCACAGCAGATTGTCAGCCAACCGCGCCAGGTCGCCCTACAGTTGAGCC (double strand) [phoP promoter probe WT]
binding [1]: no binding | binding [2]: binds more weakly | binding [3]: binds
